Positions count from the first letter of the chain named.

Test [1] addresses T1, mouse CAPRIN-1 on mouse cancer cells (mouse, UniProt Q60865 2-707).
T1 construct: whole, on cells
T1 sequence (looked up): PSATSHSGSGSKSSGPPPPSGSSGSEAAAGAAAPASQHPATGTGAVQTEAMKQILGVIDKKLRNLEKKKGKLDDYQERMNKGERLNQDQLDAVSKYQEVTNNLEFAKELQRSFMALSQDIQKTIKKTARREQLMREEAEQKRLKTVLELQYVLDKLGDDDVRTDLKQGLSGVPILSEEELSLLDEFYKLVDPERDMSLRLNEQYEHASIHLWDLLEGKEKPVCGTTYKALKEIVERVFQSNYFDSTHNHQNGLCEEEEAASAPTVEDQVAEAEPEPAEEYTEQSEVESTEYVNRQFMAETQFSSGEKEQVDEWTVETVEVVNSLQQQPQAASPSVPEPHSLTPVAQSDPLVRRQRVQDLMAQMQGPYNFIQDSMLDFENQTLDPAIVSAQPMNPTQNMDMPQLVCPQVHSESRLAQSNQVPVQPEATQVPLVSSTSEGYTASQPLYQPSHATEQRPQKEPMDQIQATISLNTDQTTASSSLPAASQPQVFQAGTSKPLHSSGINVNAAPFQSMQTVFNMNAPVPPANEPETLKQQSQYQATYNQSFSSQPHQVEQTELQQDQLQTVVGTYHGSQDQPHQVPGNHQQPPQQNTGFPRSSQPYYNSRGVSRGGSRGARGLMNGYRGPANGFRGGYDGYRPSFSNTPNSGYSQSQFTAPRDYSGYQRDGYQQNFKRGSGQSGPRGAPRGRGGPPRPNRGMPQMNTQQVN
Description: flow cytometry, Renca and 4T1 cells.

The target in test [2] is T2, human CAPRIN-1 on the cell membrane surface of human cancer cells (human, UniProt Q14444 2-709).
T2 construct: whole, on cells
T2 sequence (looked up): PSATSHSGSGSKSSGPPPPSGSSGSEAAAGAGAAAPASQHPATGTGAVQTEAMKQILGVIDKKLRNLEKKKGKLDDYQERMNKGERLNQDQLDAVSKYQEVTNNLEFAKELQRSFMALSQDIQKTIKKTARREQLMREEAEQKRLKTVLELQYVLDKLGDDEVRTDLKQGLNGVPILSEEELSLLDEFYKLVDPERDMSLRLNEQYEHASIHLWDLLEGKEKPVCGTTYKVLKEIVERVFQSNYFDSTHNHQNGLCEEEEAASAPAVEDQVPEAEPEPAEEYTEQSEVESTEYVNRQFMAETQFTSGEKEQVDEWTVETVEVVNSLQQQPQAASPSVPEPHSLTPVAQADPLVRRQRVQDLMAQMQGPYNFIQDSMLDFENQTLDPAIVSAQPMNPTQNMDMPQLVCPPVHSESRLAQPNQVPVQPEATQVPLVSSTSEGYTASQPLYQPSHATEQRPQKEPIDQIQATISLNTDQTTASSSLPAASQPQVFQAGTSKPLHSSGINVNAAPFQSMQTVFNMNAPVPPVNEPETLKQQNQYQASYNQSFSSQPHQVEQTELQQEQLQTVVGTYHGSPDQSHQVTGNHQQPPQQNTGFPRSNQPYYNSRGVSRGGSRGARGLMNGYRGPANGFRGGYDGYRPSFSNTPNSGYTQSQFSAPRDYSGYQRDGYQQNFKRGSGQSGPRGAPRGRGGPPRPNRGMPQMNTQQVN
Description: flow cytometry, BT474 cells. Here is the method:
The tube was left at 4° C. for 1 hour. After washing with PBS, Alexa 488-labeled anti-rabbit IgG (H+L) diluted 100-fold with PBS(-) containing 0.5% FBS (0.5% FBS-PBS(-)) was added thereto, and the tube was left at 4° C. for 1 hour. After washing with 0.5% FBS-PBS(-), the cells were reacted with BD Horizon Fixable Viability Stain (FVS) Reagents (FVS450, Becton, Dickinson and Company) to stain dead cells, and the fluorescence intensity was then measured using FACSFortessa™ (Becton, Dickinson and Company).

B1: Conjugate 20 (antibody, human IgG1, V domains shown)
VH: DAELVKPGASVKISCKASGYTFTDHSIHWVQQKPEQGLEWIGYISPGNGNIKYNEKFKGKATLTADKSSSTAYMQLNSLTSEDSAVYFCKRSLGRGGPYYFDYWGQGTTVTVSS
VL: DIVLTQAAPSLPVTPGESVSISCRSSKSLLHSNGNTYLYWFLQRPGQSPQLLIYRMSNLASGVPDRFSGSGSGTAFTLRISRVEAEDVGVYYCMQHREYPVTFGSGPN
notes: human IgG1 constant regions; also called conjugate with MMAE using humanized antibody #14
As for B1, the binding result in test [1] and in test [2] was “binds” throughout.

B2: Conjugate 100 (antibody, V domains shown)
VH: B1 VH
VL: B1 VL
notes: as for B1
Take B2: the binding result in test [1] and in test [2] was “binds” in each case.

B3: Conjugate 19 (antibody, human IgG1, V domains shown)
VH: GAELVRSGASVKMSCKASGYSFTDYNMYWVKQTPGQGLEWIGYIYPGNGGTNYNQKFKGKATLTADTSSSTAYMQISSLTSEDSAVYFCARDYDDGGYAMDYWGQGTTVTVSS
VL: DIQMTQSPASLSASVGETVTITCRASGNIHNYLTWYQQKQGKSPQLLVYNAKTLADGVPSRFSGSGSGTQYSLKINRLQPEDFGSYYCQHFWNIPWTFGGGTKLNSR
notes: human IgG1 constant regions; also called conjugate with MMAE using humanized antibody #13
As for B3, the binding result in test [1] and in test [2] was “binds” each time.

B4: Conjugate 99 (antibody, V domains shown)
VH: B3 VH
VL: B3 VL
notes: as for B3
Regarding B4, the binding result in test [1] and in test [2] was “binds” throughout.

B5: Conjugate 15 (antibody, human IgG1, V domains shown)
VH: AVTLDESGGGLQTPGGALSLVCKASGFTFSGYDMLWVRQAPGKGLEWVAGIGSTGGGTDYGAAVKGRATISRDNGQSTVRLQLNNLRAEDTATYYCAKVAGGCNSGYCRDSPGSIDAWGHGTEVIVS
VL: AVTQQPASVSANPGETVKITCSGGGSRNYYGWYQQKSPGSVPVTVIYYDDQRPSNIPSRFSGALSGSTSTLTITGVQADDEAVYFCGSADSNTYEGSFGAGTTLTVL
notes: human IgG1 constant regions; also called conjugate with MMAE using humanized antibody #9
Consider B5, for which the binding result in test [1] and in test [2] was “binds” throughout.

B6: Conjugate 95 (antibody, V domains shown)
VH: B5 VH
VL: B5 VL
notes: as for B5
Turning to B6, the binding result in test [1] and in test [2] was “binds” each time.

B7: Conjugate 42 (antibody, human IgG1, V domains shown)
VH: EVQLVESGGGLVQPGGSLRLSCAASGFSLSSHSLGWVRQAPGKGLEWIGDIRSGGSAYYANWAKGRFTISRDNSKNTLYLQMNSLRAEDTAVYYCTRTNGPSDLTNRLDLWGQGTLVTVSS
VL: QVLTQSPSSLSASVGDRVTINCQASQSLYNNENLAWFQQKPGKVPKRLIYGASTLASGVSSRFSGSGSGTEFTLTISSLQCEDFAIYYCLGEFSCGSADCFAFGGGTKVEIK
notes: human IgG1 constant regions; also called conjugate with MMAE using humanized antibody #36
For B7, the binding result in test [1] and in test [2] was “binds” throughout.

B8: Conjugate 122 (antibody, V domains shown)
VH: B7 VH
VL: B7 VL
notes: as for B7
Turning to B8, the binding result in test [1] and in test [2] was “binds” throughout.

B9: Conjugate 44 (antibody, human IgG1, V domains shown)
VH: B7 VH
VL: EQVLTQSPSSLSASVGDRVTINCQASQSLYNNENLAWFQQKPGKVPKRLIYGASTLASGVSSRFSGSGSGTEFTLTISNLQPEDFAIYYCLGEFSCGSADCFAFGGGTKVEIK
notes: human IgG1 constant regions; also called conjugate with MMAE using humanized antibody #38
Take B9: the binding result in test [1] and in test [2] was “binds” throughout.

B10: Conjugate 46 (antibody, human IgG1, V domains shown)
VH: B7 VH
VL: B9 VL with Q2I, I87T
notes: human IgG1 constant regions; also called conjugate with MMAE using humanized antibody #40
Regarding B10, the binding result in test [1] and in test [2] was “binds” in each case.

B11: Conjugate 126 (antibody, V domains shown)
VH: B7 VH
VL: B9 VL with Q2I, I87T
notes: as for B10
B11: the binding result in test [1] and in test [2] was “binds” throughout.

B12: Conjugate 45 (antibody, human IgG1, V domains shown)
VH: B7 VH with Y94F
VL: B9 VL with Q2I, I87T
notes: human IgG1 constant regions; also called conjugate with MMAE using humanized antibody #39
As to B12, the binding result in test [1] and in test [2] was “binds” each time.

B13: Conjugate 123 (antibody, V domains shown)
VH: B7 VH with Y94F
VL: B7 VL
notes: human IgG1 constant regions; also called conjugate with MMAE using humanized antibody #37
For the molecule B13, the binding result in test [1] and in test [2] was “binds” in each case.

B14: Conjugate 125 (antibody, V domains shown)
VH: B7 VH with Y94F
VL: B9 VL with Q2I, I87T
notes: as for B12
Consider B14, for which the binding result in test [1] and in test [2] was “binds” in each case.

B15: Conjugate 43 (antibody, human IgG1, V domains shown)
VH: B7 VH with Y94F
VL: B7 VL
notes: as for B13
As to B15, the binding result in test [1] and in test [2] was “binds” throughout.

B16: Conjugate 127 (antibody, V domains shown)
VH: B7 VH with Y94F
VL: B9 VL
notes: human IgG1 constant regions; also called conjugate with MMAE using humanized antibody #41
As for B16, the binding result in test [1] and in test [2] was “binds” each time.

B17: Conjugate 8 (antibody, human IgG1, V domains shown)
VH: B7 VH with V2Q, Q3S
VL: B7 VL
notes: human IgG1 constant regions; also called conjugate with MMAE using humanized antibody #2
For the molecule B17, the binding result in test [1] and in test [2] was “binds” in each case.

B18: Conjugate 47 (antibody, human IgG1, V domains shown)
VH: B7 VH with Y94F
VL: B9 VL
notes: as for B16
Consider B18, for which the binding result in test [1] and in test [2] was “binds” in each case.

B19: Conjugate 88 (antibody, V domains shown)
VH: B7 VH with V2Q, Q3S
VL: B7 VL
notes: as for B17
In the case of B19, the binding result in test [1] and in test [2] was “binds” each time.
